Measurements taken from patent US20250109177A1, “EVOLVED PROTEIN DEGRONS” (The Broad Institute, Inc., priority 2022, published 2025).

What was measured:
degron-tagged eGFP = assay: Flow-based degradation assay, Degron-eGFP-IRES-mCherry in HEK293T cells; assay type: cell-based, human; conditions: HEK293T, overnight PT-179 treatment
Description: A flow-based degradation assay was then performed using a stably transduced Degron-eGFP-IRES-mCherry construct in HEK 293T cells to determine the ability of the evolved degrons to […] (see FIG. 7). Concentration of PT-179 is shown on the x-axis. Degrons indicated in the key were fused to the N-terminus of eGFP allowing measurement of eGFP:mCherry ratios for assessing degradation.
To characterize the evolved degrons, stable HEK293T cell lines expressing degron-tagged eGFP were generated (FIG. 19A). […] The final variant, SD36, potently degraded GFP in response to PT-179 (DC50=14 nM).

[1] = test system: CRBN C-terminal domain (CTD); assay: CRBN-CTD MG-PACE circuit transcriptional activation (luminescence); assay type: cell-based, human; conditions: at 50 μM PT-179

degron-tagged eGFP, sequence (Q96SW2 24-442 limits assumed): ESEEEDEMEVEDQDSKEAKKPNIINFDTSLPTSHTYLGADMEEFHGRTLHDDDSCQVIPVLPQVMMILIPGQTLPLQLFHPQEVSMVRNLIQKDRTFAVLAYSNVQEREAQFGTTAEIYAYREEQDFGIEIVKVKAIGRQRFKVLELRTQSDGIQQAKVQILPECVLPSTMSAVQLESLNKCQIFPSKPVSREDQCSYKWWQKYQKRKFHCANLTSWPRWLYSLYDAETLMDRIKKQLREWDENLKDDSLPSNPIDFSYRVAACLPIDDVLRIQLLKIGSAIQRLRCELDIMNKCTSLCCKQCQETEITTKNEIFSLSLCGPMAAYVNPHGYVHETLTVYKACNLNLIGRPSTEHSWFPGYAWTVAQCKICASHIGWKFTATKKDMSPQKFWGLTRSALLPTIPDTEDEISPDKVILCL

B1: SD20: Evolved degron SEQ ID NO: 21: S10R E14D P16L E20K Q28E E42V P44T F45V R57K D58R A59C L60F *61VI (protein)
chain: FNVLMVHKRRHTGDRLLQCKICGFTCREKGNLLRHIKLHTGVKTVKCHLCNYACQRKRCFVI
- GFP degradation in response to PT-179 (degron-tagged eGFP): did not trigger GFP degradation
- luciferase expression, activation [1]: 24 fold
